# From patent US8586548B2, “NAP alpha-aminoisobutyric acid analog with neuroprotective activity” (Ramot at Tel-Aviv University, Ltd., priority 2009, dated 2013)
# “Also recorded” adds a separate entry of the source. Non-standard residues stand in square brackets, D forms with d. No end group written: not given here. Aib = CC(C)(N)C(=O)O
# Assays:
# [1] = target: VQIVYK (SEQ ID NO:10) peptide derived from tau (Homo sapiens, UniProt P10636); experiment: In vitro tau-like VQIVYK aggregation assay (Thioflavin S); type: biochemical
# Experimental: In the presence of polyglutamic acid (or heparin), VQIVYK (SEQ ID NO:10) aggregates which can be further detected by Thioflavin S (excitation 485 nm and emission 535) with emission intensity greatly increasing.
# First, different concentrations of polyglutamic acid (0, 100 μM, 250 μM, and 400 μM) VQIVYK (SEQ ID NO:10) and either […] (NH4Ac) 50 mM pH 6.5 or MOPS 20 mM pH 6.5 and Thioflavin S 5 μM were mixed together and incubated at room temperature. The extent of aggregation was read at excitation 485 nm and emission 535 nm using the infinite 200 system with the Magellan program.
# The peptides were added at a range of concentrations (10^−17-10^−9 M) and the extent of aggregation of 100 μM VQIVYK (SEQ ID NO:10) was tested in the presence of polyglutamate 250 μM in MOPS 20 μM, pH 6.5 for 7 days.
# In order to avoid reading self peptide aggregation as VQIVYK aggregation, for each peptide concentration, the fluorescence of the peptide solution without VQIVYK was subtracted from the fluorescence of each peptide concentration containing VQIVYK.
# ADNP^+/− male mice = experiment: Morris water maze test; type: in vivo, mouse
# Experimental: The heterozygous ADNP mice were generated as before (Pinhasov et al., Brain Res. Dev. Brain Res. 2003, 144:83-90; and Vulih-Shultzman et al., J Pharmacol Exp Ther. 2007, 323(2):438-49). To avoid any variability in results associated with the estrous cycle in females, only ADNP^+/− male mice are use for behavioral experiments.
# Iso-NAP (NAXaaVSIXaaQ; SEQ ID NO:1) was dissolved in a vehicle solution, in which each milliliter included 7.5 mg of NaCl, 1.7 mg of citric acid monohydrate, 3 mg of disodium phosphate dihydrate, and 0.2 mg of benzalkonium chloride solution (50%). Iso-NAP or vehicle solution (DD) was administered to mice handheld in a semi-supine position with nostrils facing the investigator. A pipette tip was used to administer 2.5 μl/each nostril. The mouse was handheld until the solution is entirely absorbed. Nasal Iso-NAP application was performed daily, once a day, for 2 weeks for the Morris water maze test. In the 2nd week, Iso-NAP was applied 1 h before the daily test (see below), which was conducted for 5 consecutive days. In the passive avoidance test, all mice were treated for a total of 7 days, on the 7th day of treatment the test began. Iso-NAP was applied 1 h before the test.
# The mouse is placed in a pool of water that is colored opaque with powdered non-fat milk, where it must swim to a hidden escape platform. The position of the platform is altered between days but remains constant within each day. Because it is in opaque water, the mouse cannot see the platform, and cannot rely on scent to find the escape route. As the mouse becomes more familiar with the task, it is able to find the platform more quickly.
# Pool diameter—140 cm, Platform—clear plaxiglass, 12 cm in diameter, 2 cm below the surface of the water, Water temperature—22-23° C., Room temperature—26-28° C.
# Mice are treated with Iso-NAP/vehicle and then habituated for 1 hour in the experimental room. […] The time requires to reach the platform in each trial is measured. […]
# [2] = 100 μM VQIVYK, polyglutamate 250 μM, MOPS pH 6.5, 7 days, FIG. 4, p<0.0005 vs. control, listed as IsoNAP
substance,measurement,setting,value
"NAXaaVSIXaaQ (NA[Aib]VSI[Aib]Q) [Alpha-aminoisobutyric NAP, both prolines of NAP substituted]",inhibition of tau aggregation at 10^−13M,[1]; [2],remains effective; also recorded: more effective than NAP
same,inhibition of tau aggregation at 10^−17M,[1]; [2],more potent; also recorded: more effective than NAP
same,prevention of tau aggregation (overall),[1]; peptides at 10^−17-10^−9 M,effective for preventing tau aggregation
same,Morris water maze performance (working memory) vs vehicle controls,"ADNP^+/− male mice; 2 μg/5 μl/mouse/day intranasal, third day of testing, P<0.05",performed better than controls
same,Morris water maze performance (working memory) vs vehicle controls,"ADNP^+/− male mice; 30 μg/5 μl/mouse/day intranasal, day 2 P<0.05, day 3 P<0.07, listed as Iso-NAP",better than control on testing days 2 and 3
same,Morris water maze performance (working memory) vs vehicle controls,"ADNP^+/− male mice; 30 μg/5 μl/mouse/day intranasal, day 2 P<0.05, day 3 P<0.07, listed as IsoNAP",seems to affect the spatial memory
